In patent publication US11549123B2, “Plant EPSP synthases and methods of use” (PIONEER HI-BRED INTERNATIONAL, INC., priority 2015, dated 2023):

Key:
sorghum EPSPS = assay: EPSPS reaction rates at 200 uM PEP and S3P, and at 30 uM substrates with 1 mM glyphosate; type: biochemical, Sorghum halepense; settings: Sor ha; for Reaction rate, 200 uM, no glyph: PEP and S3P both at 200 uM, no glyphosate; for Reaction rate, 30 uM, 1 mM glyph: substrates at 30 uM, glyphosate at 1 mM
Protocol: (§1) EPSPS activity was determined by quantifying the phosphate generated from the EPSPS reaction. Release of inorganic phosphate was coupled to reaction with 2-amino-6-mercapto-7-methylpurine ribonucleoside, catalyzed by purine-nucleoside phosphorylase (M R Webb, Proc. Natl. Acad. Sci. 89:4884-4887, 1992). The absorbance change that occurs was monitored at 360 nm, where the extinction is 11,200 M^−1 cm^−1, with a Spectramax plate reader (Molecular Devices). To determine kinetic parameters, the varied substrate was present at seven concentrations (the eighth being the blank, containing no substrate) ranging from 4 to 400 uM and the unvaried substrate present at saturation. Six microliters of 50-fold concentrated stock solutions of the varied substrate were placed in the wells of the 96-well assay plate and reactions were started with the addition of a mixture containing 25 mM Hepes, pH 7, 100 mM KCl, 0.3 mM 2-amino-6-mercapto-7-methylpurine ribonucleosde, 1 uM (1 unit/ml) purine-nucleoside phosphorylase (Sigma N8264) and 200 uM of the non-varied substrate. Reactions were monitored with a Spectramax plate reader. The Michaelis-Menten kinetics protocol of the Spectramax software was customized for the substrate concentrations used. The software returns values of KM and Vmax using the Lineweaver-Burke transformation of the Michaelis-Menten equation. To determine kcat, Vmax (uM/min) was divided by the enzyme concentration (uM). […] KI was then calculated from the following form of the Michaelis-Menten equation for competitive inhibition: KI=KM[I]/(KM app−KM) KM approximates the dissociation constant of the enzyme-substrate complex while kcat is the rate of conversion of substrate to product when the substrate concentration is saturating. kcat/KM is a widely accepted parameter for catalytic efficiency when substrate concentration is low (˜KM). […] The parameter kcat/KM×KI is used to quantify both catalytic efficiency and insensitivity and thus the overall fitness of the enzyme.
Likewise, the mutations present in maize EPSPS 123-C1 (See Table 8) were mapped onto the amino acid sequences of sorghum (SEQ ID NO:23) and the proteins were produced and purified as above.

[1] = tested on: Glycine max (93Y21) hairy root; assay: Hairy root growth from transformed soybean cotyledons with or without 25 uM glyphosate; type: cell-based; settings: constructs containing the UBQ10 promoter
[2] = substrate: C=C(OP(=O)(O)O)C(=O)O; assay: EPSPS substrate saturation kinetics, WT-FS-E; type: biochemical, Zea mays; settings: other: PEP varied; pH 7.0
Protocol: as §1, with “reader.” for “reader. The Michaelis-Menten kinetics protocol of the Spectramax software was customized for the substrate concentrations used. The software returns values of KM and Vmax using the Lineweaver-Burke transformation of the Michaelis-Menten equation. To determine kcat, Vmax (uM/min) was divided by the enzyme concentration (uM).”, “enzyme. […]” for “enzyme.”
The vector DNA of the library was transformed into the BL21(DE3) Tuner AroA knockout strain and the cells were plated onto M9 medium containing 50 mM glyphosate. A small aliquot of the transformed cells was plated on LB, by which it was determined that 1.1×10^8 colony forming units, or 20% of the theoretical library size, were plated and screened. […]

[3] = substrate: C=C(OP(=O)(O)O)C(=O)O; assay: purified protein, by the assay type; settings: pH 7.0
[4] = other: substrate saturation, Zm native
[5] = other: substrate saturation, Zm-G102A
[6] = other: substrate saturation, Zm-P107L

B1: Sor ha C1 mutations: mutated version of the EPSPS sequence from sorghum that contains the 123-C1 mutations (protein)
chain: ARGWEEIVLQPIKEISGTVKLPGSKSLSNRILLLAALSEGTTVVDNLLNSEDVHYMLGALNTLGLSVEADKVAKRAVVVGCGGRFPVEDAKEEVQLFCGNAATAMRPLTAAVTAAGGNATYVLDGVPRMRERPIGDLVVGLKQLGADVDCFLGTDCPPVRINGIGGLPGGKVKLSGSISSQYLSALLMAAPLALGDVEIEIIDKLISLPYVEMTLRLMERFGVKAEHSDSWDRFYIKGGQKYESPKNAYVEGDASSASYFLAGAAITGGTVTVEGCGTTSLQGDVKFAEVLEMMGAKVTWTETSVTVTGPPRQPFGRKHLKAIDVNMNKMPDVAMTLAVVALFADGPTAIRDVASWRVKETERMVAIRTELTKLGASVEEGPDYCIITPPPKLNVTAIDTYGDHRMAMAFSLAACAEVPVTIRDPGCTRKTFPDYFDVLSTFVKN
modifications: Sorghum halapense H6T5X2 with C1 mutations
- Reaction rate, 200 uM, no glyph (sorghum EPSPS): 356
- Reaction rate, 30 uM, 1 mM glyph (sorghum EPSPS): 60.0

B2: 868-H6: maize EPSPS with A2R, A4W, A72Q, K84R, L98C, G102A, I208L, T279A, E302S, T361S, E391G, D402G, A416G, V438R, T441Q (protein)
chain: MRGWEEIVLQPIKEISGTVKLPGSKSLSNRILLLAALSEGTTVVDNLLNSEDVHYMLGALRTLGLSVEADKQAKRAVVVGCGGRFPVEDAKEEVQLFCGNAATAMRPLTAAVTAAGGNATYVLDGVPRMRERPIGDLVVGLKQLGADVDCFLGTDCPPVRVNGIGGLPGGKVKLSGSISSQYLSALLMAAPLALGDVEIEIIDKLISLPYVEMTLRLMERFGVKAEHSDSWDRFYIKGGQKYKSPKNAYVEGDASSASYFLAGAAITGGTVTVEGCGTASLQGDVKFAEVLEMMGAKVTWTSTSVTVTGPPREPFGRKHLKAIDVNMNKMPDVAMTLAVVALFADGPTAIRDVASWRVKESERMVAIRTELTKLGASVEEGPDYCIITPPGKLNVTAIDTYGDHRMAMAFSLAACGEVPVTIRDPGCTRKTFPDYFDRLSQFVKN
modifications: maize clone 868-H6
notes: maize EPSPS with A2R, A4W, A72Q, K84R, L98C, G102A, I208L, T279A, E302S, T361S, E391G, D402G, A416G, V438R, T441Q
- hairy root growth in the presence of 25 uM glyphosate [1]: generated hairy roots

B3: 771-C2: maize EPSPS with A4W, H54M, L98C, G102A, K173R, I208L, K243E, E302S, T361S, E391P, D402G, A416G, V438R, S440R, T441Q, F442V (protein)
chain: MAGWEEIVLQPIKEISGTVKLPGSKSLSNRILLLAALSEGTTVVDNLLNSEDVMYMLGALRTLGLSVEADKAAKRAVVVGCGGKFPVEDAKEEVQLFCGNAATAMRPLTAAVTAAGGNATYVLDGVPRMRERPIGDLVVGLKQLGADVDCFLGTDCPPVRVNGIGGLPGGKVRLSGSISSQYLSALLMAAPLALGDVEIEIIDKLISLPYVEMTLRLMERFGVKAEHSDSWDRFYIKGGQKYESPKNAYVEGDASSASYFLAGAAITGGTVTVEGCGTTSLQGDVKFAEVLEMMGAKVTWTSTSVTVTGPPREPFGRKHLKAIDVNMNKMPDVAMTLAVVALFADGPTAIRDVASWRVKESERMVAIRTELTKLGASVEEGPDYCIITPPPKLNVTAIDTYGDHRMAMAFSLAACGEVPVTIRDPGCTRKTFPDYFDRLRQVVKN
modifications: maize clone 771-C2
notes: maize EPSPS with A4W, H54M, L98C, G102A, K173R, I208L, K243E, E302S, T361S, E391P, D402G, A416G, V438R, S440R, T441Q, F442V
- hairy root growth in the presence of 25 uM glyphosate [1]: generated hairy roots

B4: Zea mays EPSPS variant WT-FS-E (102A 302S 391G 438R) (Zea mays; E301S/E390G/G101A/V437R) (protein)
chain: MAGAEEIVLQPIKEISGTVKLPGSKSLSNRILLLAALSEGTTVVDNLLNSEDVHYMLGALRTLGLSVEADKAAKRAVVVGCGGKFPVEDAKEEVQLFLGNAATAMRPLTAAVTAAGGNATYVLDGVPRMRERPIGDLVVGLKQLGADVDCFLGTDCPPVRVNGIGGLPGGKVKLSGSISSQYLSALLMAAPLALGDVEIEIIDKLISIPYVEMTLRLMERFGVKAEHSDSWDRFYIKGGQKYKSPKNAYVEGDASSASYFLAGAAITGGTVTVEGCGTTSLQGDVKFAEVLEMMGAKVTWTSTSVTVTGPPREPFGRKHLKAIDVNMNKMPDVAMTLAVVALFADGPTAIRDVASWRVKETERMVAIRTELTKLGASVEEGPDYCIITPPGKLNVTAIDTYDDHRMAMAFSLAACAEVPVTIRDPGCTRKTFPDYFDRLSTFVKN
- Km [2]: 165 µM
- kcat [2]: 6.63 s⁻¹
- kcat/Km [2]: 2.41 min^−1uM^−1

B5: Sor ha, native: native EPSPS from sorghum (Sorghum halepense) (protein)
chain: AAGAEEIVLQPIKEISGTVKLPGSKSLSNRILLLAALSEGTTVVDNLLNSEDVHYMLGALNTLGLSVEADKVAKRAVVVGCGGKFPVEDAKEEVQLFLGNAGTAMRPLTAAVTAAGGNATYVLDGVPRMRERPIGDLVVGLKQLGADVDCFLGTDCPPVRINGIGGLPGGKVKLSGSISSQYLSALLMAAPLALGDVEIEIIDKLISIPYVEMTLRLMERFGVKAEHSDSWDRFYIKGGQKYKSPKNAYVEGDASSASYFLAGAAITGGTVTVEGCGTTSLQGDVKFAEVLEMMGAKVTWTETSVTVTGPPRQPFGRKHLKAIDVNMNKMPDVAMTLAVVALFADGPTAIRDVASWRVKETERMVAIRTELTKLGASVEEGPDYCIITPPEKLNVTAIDTYDDHRMAMAFSLAACAEVPVTIRDPGCTRKTFPDYFDVLSTFVKN
modifications: Sorghum halapense
- Reaction rate, 200 uM, no glyph (sorghum EPSPS): 1376
- Reaction rate, 30 uM, 1 mM glyph (sorghum EPSPS): −2.2

B6: Zea mays EPSPS, native, SEQ ID NO:2 (Zea mays) (protein)
chain: MAGAEEIVLQPIKEISGTVKLPGSKSLSNRILLLAALSEGTTVVDNLLNSEDVHYMLGALRTLGLSVEADKAAKRAVVVGCGGKFPVEDAKEEVQLFLGNAGTAMRPLTAAVTAAGGNATYVLDGVPRMRERPIGDLVVGLKQLGADVDCFLGTDCPPVRVNGIGGLPGGKVKLSGSISSQYLSALLMAAPLALGDVEIEIIDKLISIPYVEMTLRLMERFGVKAEHSDSWDRFYIKGGQKYKSPKNAYVEGDASSASYFLAGAAITGGTVTVEGCGTTSLQGDVKFAEVLEMMGAKVTWTETSVTVTGPPREPFGRKHLKAIDVNMNKMPDVAMTLAVVALFADGPTAIRDVASWRVKETERMVAIRTELTKLGASVEEGPDYCIITPPEKLNVTAIDTYDDHRMAMAFSLAACAEVPVTIRDPGCTRKTFPDYFDVLSTFVKN
- Km [3, 4]: 11.0 µM
- kcat [3, 4]: 17.27 s⁻¹

B7: Zea mays EPSPS variant G102A (Zea mays; G101A) (protein)
chain: MAGAEEIVLQPIKEISGTVKLPGSKSLSNRILLLAALSEGTTVVDNLLNSEDVHYMLGALRTLGLSVEADKAAKRAVVVGCGGKFPVEDAKEEVQLFLGNAATAMRPLTAAVTAAGGNATYVLDGVPRMRERPIGDLVVGLKQLGADVDCFLGTDCPPVRVNGIGGLPGGKVKLSGSISSQYLSALLMAAPLALGDVEIEIIDKLISIPYVEMTLRLMERFGVKAEHSDSWDRFYIKGGQKYKSPKNAYVEGDASSASYFLAGAAITGGTVTVEGCGTTSLQGDVKFAEVLEMMGAKVTWTETSVTVTGPPREPFGRKHLKAIDVNMNKMPDVAMTLAVVALFADGPTAIRDVASWRVKETERMVAIRTELTKLGASVEEGPDYCIITPPEKLNVTAIDTYDDHRMAMAFSLAACAEVPVTIRDPGCTRKTFPDYFDVLSTFVKN
- Km ([3]; other: PEP varied): 310 µM
- Km [3, 5]: 407 µM
- kcat [3, 5]: 14.3 s⁻¹

B8: Zea mays EPSPS variant P107L (Zea mays; P106L) (protein)
chain: MAGAEEIVLQPIKEISGTVKLPGSKSLSNRILLLAALSEGTTVVDNLLNSEDVHYMLGALRTLGLSVEADKAAKRAVVVGCGGKFPVEDAKEEVQLFLGNAGTAMRLLTAAVTAAGGNATYVLDGVPRMRERPIGDLVVGLKQLGADVDCFLGTDCPPVRVNGIGGLPGGKVKLSGSISSQYLSALLMAAPLALGDVEIEIIDKLISIPYVEMTLRLMERFGVKAEHSDSWDRFYIKGGQKYKSPKNAYVEGDASSASYFLAGAAITGGTVTVEGCGTTSLQGDVKFAEVLEMMGAKVTWTETSVTVTGPPREPFGRKHLKAIDVNMNKMPDVAMTLAVVALFADGPTAIRDVASWRVKETERMVAIRTELTKLGASVEEGPDYCIITPPEKLNVTAIDTYDDHRMAMAFSLAACAEVPVTIRDPGCTRKTFPDYFDVLSTFVKN
- Km ([3]; other: PEP varied): 67.1 µM
- Km [3, 6]: 59.7 µM
- kcat [3, 6]: 22.93 s⁻¹
